Test results as given in paper PMC2837123.

Target: PFV integrase (IN) (prototype foamy virus, UniProt P14350 752-1143)
Assay: crystal structure

B1: pre-processed PFV U5 end (17/19 nt) (dsDNA)
DNA 1: TACAAAATTCCATGACA
DNA 2: ATTGTCATGGAATTTTGTA
binding result: binds
